Experimental findings from article PMC3017026 are described below.

For this experiment, the target named is recombinant human α-synuclein (human) (UniProt P37840).

In the case of amyloid-β 1-42 synthetic peptide, the EC50 of the loss of synaptophysin (ELISA) in mouse cortical neurons incubated 24 hours with αSN premixed with Aβ1-42 (1:50); αSN alone 500 nM came out at 25 nM.
